From article PMC11252808 (Proceedings of the National Academy of Sciences of the …, 2024)
Where no end group is shown, it is not given here. [ ]: non-standard residue; d: D form. pS = N[C@@H](COP(=O)(O)O)C(=O)O

Molecular target: T1, recombinant SUFU (UniProt Q9UMX1 1-484)
T1 sequence (looked up): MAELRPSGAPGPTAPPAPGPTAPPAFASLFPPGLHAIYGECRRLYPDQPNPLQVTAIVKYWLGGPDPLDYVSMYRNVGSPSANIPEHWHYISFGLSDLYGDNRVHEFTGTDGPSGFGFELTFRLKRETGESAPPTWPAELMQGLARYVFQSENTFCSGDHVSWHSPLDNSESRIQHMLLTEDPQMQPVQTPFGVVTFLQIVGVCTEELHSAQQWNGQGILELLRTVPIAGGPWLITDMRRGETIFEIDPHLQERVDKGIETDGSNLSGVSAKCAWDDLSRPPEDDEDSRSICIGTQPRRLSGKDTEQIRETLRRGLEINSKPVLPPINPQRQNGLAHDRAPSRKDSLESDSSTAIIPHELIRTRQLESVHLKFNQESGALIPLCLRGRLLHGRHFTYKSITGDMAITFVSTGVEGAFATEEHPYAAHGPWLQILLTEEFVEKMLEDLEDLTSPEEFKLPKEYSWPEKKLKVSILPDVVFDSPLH
Test: SPR

Kd: 5.08 µM
Binder: MIRT[pS]PNSLVTILNNSRSSSSASGSYGHLSASAISPA (peptide, UniProt P10071 309-345, looked up) [phosphorylated GLI3 peptide (phospho-GLI3^S313_(309–345))]
